Source: article PMC8257933

Key:
[1] = molecular target: NTCP-V5-His G60LXXXA64L/G233LXXXG237L (TMD2/7) double mutant; assay: co-IP (IP anti-FLAG agarose, western blot anti-V5, ImageJ band quantification); details: HEK293 cells co-transfected with NTCP-FLAG and NTCP-V5-His; n = 3 independent experiments; parent: est. 100; read off a plot
[2] = molecular target: NTCP-V5-His G233LXXXG237L (TMD7) mutant; assay: as above; details: HEK293 cells co-transfected with NTCP-FLAG and NTCP-V5-His; n = 3 independent experiments; parent: est. 100; read off a plot

“NTCP wild type, NTCP-FLAG and NTCP-V5-His expressed in HEK293 cells (from UniProt Q14973) binder (NTCP-FLAG): G60L; A64L; G233L; G237L; target (NTCP-V5): G60L; A64L; G233L; G237L” was tested, and the percent of parent [1] was 130 % of control.
In the case of “NTCP wild type, NTCP-FLAG and NTCP-V5-His expressed in HEK293 cells (from UniProt Q14973) binder (NTCP-FLAG): G60L; A64L; target (NTCP-V5): G233L; G237L”, the percent of parent [2] is reported as 120 % of control.
